Consider 2 molecules from patent publication US20250388663A1 (INSTITUT NATIONAL DE LA SANT ET DE LA RECHERCHE M DICALE, published 2025).

A value given as a limit tells only on which side of the number the result lay.

In assay [1] the target is T1, mouse serum albumin (mouse, UniProt P07724 25-608).
T1 construct: also called MSA; murine serum albumin
Description: SPR (openSPR), control channel blocked with the non-relevant sdAb and ethanolamine, albumin perfused. The following applies: scale: % of binding to OptiAlb-12-coated channels.

In assay [2] the target is human serum albumin (human) (UniProt P02768). The description is as above. The settings on record: scale: % of binding to OptiAlb-12-coated channels.
The target of assay [3] is T1, mouse serum albumin. Nature of the assay: ELISA, MSA coated at 2 ug/ml, nanobody titrated, anti-cMyc-HRP detection. (In an ELISA, binding on a coated surface is turned into a signal by an enzyme label.)
Description: After washing wells with PBS/0.1% Tween-20, wells were blocked by incubating with PBS/1% bovine serum albumin (BSA) for 1 h at 37° C. […] After three washes with PBS/0.1% Tween-20, bound proteins were probed using polyclonal peroxidase-labelled anti-cMyc antibodies (1:5,000 dilution), and detected via hydrolysis of 3,3′,5,5′-tetramethylbenzidine.

T1 sequence (P07724 25-608 limits assumed): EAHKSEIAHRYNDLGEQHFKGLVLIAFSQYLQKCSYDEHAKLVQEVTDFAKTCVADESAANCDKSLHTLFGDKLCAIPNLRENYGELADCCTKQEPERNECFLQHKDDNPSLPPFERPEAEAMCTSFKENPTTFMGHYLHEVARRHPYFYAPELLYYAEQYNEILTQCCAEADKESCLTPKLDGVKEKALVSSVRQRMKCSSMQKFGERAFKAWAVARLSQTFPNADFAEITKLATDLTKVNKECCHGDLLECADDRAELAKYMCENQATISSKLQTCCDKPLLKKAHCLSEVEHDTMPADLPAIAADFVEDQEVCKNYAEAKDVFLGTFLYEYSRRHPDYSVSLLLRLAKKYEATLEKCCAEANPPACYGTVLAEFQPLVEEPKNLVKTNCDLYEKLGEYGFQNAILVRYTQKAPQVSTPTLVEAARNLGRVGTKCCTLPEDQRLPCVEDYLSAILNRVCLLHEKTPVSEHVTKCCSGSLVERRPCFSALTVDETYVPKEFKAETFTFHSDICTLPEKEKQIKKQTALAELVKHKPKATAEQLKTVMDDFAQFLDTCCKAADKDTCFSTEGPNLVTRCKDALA

As to “non-relevant single-domain antibody (VHH)”, the binding to the control channel as percent of binding to OptiAlb-12-coated channels in assay [1] and in assay [2] was less than 3 throughout.

B1: OptiAlb-11 (VHH)
VHH: EVQLVESGGGLVQPGNSLRLSCAASGFTFSSFGMSWVRQAPGKGPEWVSSISGSGHDTLYADSVKGRFTISRDNAKTTLYLQMNSLRPEDTAVYYCTIGGSLTRSSQGTLVTVSS
notes: not shown: C-terminal histidine- and cMyc-tag from the pHEN6 plasmid
Turning to B1, the binding result in assay [3] is recorded as “binds”.
